From patent US20260209365A1, “ANTI-COMMON GAMMA CHAIN PROTEINS AND COMPOSITIONS OF MATTER” (SINOMAB BIOSCIENCE LIMITED, priority 2023, published 2026)

What was measured:
Format in all cases: cell-based, human
Conditions in all cases: ScFv 10 μg/ml
[1] = test system: IL-4 induced STAT6 phosphorylation; assay: Inhibition of IL-4 induced STAT phosphorylation in Ramos B cell line, flow cytometry
From the text: (§1) Cells were harvested and stained with FITC conjugated anti-pSTAT6, PE conjugated anti-pSTAT3 or APC con jugated anti-pSTAT5 antibodies for flow cytometry analyses. In some embodiments, the purified ScFv could block the IL-4 induced STAT6 phosphorylation in cell culture (e.g., Ramos). In some embodiments, the purified ScFv could block the IL-7 induced STAT5 phosphorylation in cell culture (e.g., HPB-ALL). In some embodiments, the purified ScFv could block the IL-9 induced STAT3 phosphorylation in cell culture (e.g., Jurkat). In some embodiments, the purified ScFv could block the IL-15 induced STAT5 phosphorylation in cell culture (e.g., KHYG-1). In some embodiments, the purified ScFv could block the IL-21 induced STAT3 phosphorylation in cell culture (e.g., Ramos).
(§2) Flow cytometry was employed to measure the percentage of p-STAT expressing cells after cytokine induction and anti-γc ScFv treatment. KHYG-1 (Creative Bioarray, Shirley, NY 11967, USA) was starved in IL-2 free RPMI1640 (ATCC modification, ThermoFisher Scientific, Waltham, MA, USA) with 10% FBS (ThermoFisher Scientific) for 2 days. Ramos, HPB-ALL and Jurkat cell lines were used directly without starvation. Cells were replenished with fresh RPMI1640 medium and pretreated with anti-γc ScFv (10 μg/mL) for an hour. After treatment with TL-4 (10 ng/ml, Sino Biological), IL-7 (50 ng/ml, Sino Biological), IL-9 (50 ng/ml, Sino Biological), IL-15 (10 ng/ml, Sino Biological) or IL-21 (10 ng/ml, Sino Biological) for 15 min, cells were fixed in 4% paraformaldehyde (PFA, Sigma, St. Louis, Missouri, USA) for 10 min, permeabilized in 0.1% Triton X-100 (Sigma) for 10 min and then stained with FITC conjugated anti-pSTAT6, PE conjugated anti-pSTAT3 or APC con jugated anti-pSTAT5 (all diluted in 1:100, Biolegend, San Diego, California, USA) for 30 min at 37° C. Percentage of p-STAT expressing cells was measured by BD FACSLyric™ Clinical Flow Cytometry System (BD Biosciences, New Jersey, USA). Data were analyzed by Flowjo (version 10, BD).
(§3) Different cell lines were used for testing. KHYG-1 refers to the NK cell line harvested from the peripheral blood of a person with aggressive NK cell leukemia. This cell line could respond to IL-2 and IL-15 stimulation in-vitro [Yamasaki et al., Leuk Res., […]; 28 (10): 1023-31]. Ramos is a human Burkitts Lymphoma cell line (CRL-1596™) and could be used as a model for IL-4 and IL-21 studies [Hui et al., Front Immunol., 2022; 13: 919854]. Jurkat is a human T lymphoblast cell line (Clone E6-1, TIB-152™) and is widely used in the T cell studies of IL-9 function. HPB-ALL is a T cell leukemia model established from the peripheral blood of a child with ALL and thymoma at diagnosis in 1973 and could be used for IL-7 functional studies.

[2] = test system: IL-7 induced STAT5 phosphorylation; assay: Inhibition of IL-7 induced STAT5 phosphorylation in HPB-ALL T cell line, flow cytometry
From the text: as §1, §2, §3

[3] = test system: IL-15 induced STAT5 phosphorylation; assay: Inhibition of IL-15 induced STAT phosphorylation in KHYG-1 NK cell line, flow cytometry
From the text: as §1, §2, §3

[4] = test system: IL-21 induced STAT3 phosphorylation; assay: Inhibition of IL-21 induced STAT phosphorylation in Ramos B cell line, flow cytometry
From the text: as §1, §2, §3

[5] = test system: IL-9 induced STAT3 phosphorylation; assay: Inhibition of IL-9 induced STAT3 phosphorylation in Jurkat T cell line, flow cytometry
From the text: as §1, §2, §3

| Molecule | p-STAT6 inhibition (%) [1] | p-STAT5 inhibition (%) [2] | p-STAT5 inhibition (%) [3] | p-STAT3 inhibition (%) [4] | p-STAT3 inhibition (%) [5] |
| --- | --- | --- | --- | --- | --- |
| SM-05J: anti-γc antibody; CDR SEQ ID NO: 148, 150, 152, 156, 158, 160 (antibody, V domains shown, left off: another chain or arm of the molecule; small tags and cut ends) VH: EVQLQQSGPELVKPGASVKISCKTSGYTFTEYTMHWVKQSHGKSLEWIGGIDPYNGGITYNQRFKGKATLTVDKSSSTAYMELRSLTSEDSAVYYCARRRLYYGYALDYWGQGTSVTVSS VL: DVVMTQTPLSLPVSLGDQASISCRSSQSIVHSNGNTYLEWYLQKPGQSPKLLIYKVSNRFSGVPDRFSGSGSGTDFTLKISRVEAEDLGVYYCFQGSHVPFTFGSGTKLEIK | 82.22% | 98.10% | 42.71% | 75.77% | 100% |
| SM-05B: anti-γc antibody; CDR SEQ ID NO: 20, 22, 24, 28, 30, 32 (antibody, V domains shown, left off: another chain or arm of the molecule; small tags and cut ends) VH: QVQLQQSGPELVKPGASVKIFCKTSGYTFTEYTMHWVKQSHGESLEWIGGIDPNTGGATYNQKFKGKATLTADKSSSTAYMELRSLTSEDSAVYYCARRRRYYGYALDYWGQGTSVTVSS VL: DVLMTQTPLSLPVSLGDQASISCRSSQSIVHSNGNTYLEWYLQKPGQSPKLLIYKVSNRFSGVPDRFSGSGSGTDFTLKISRVEAEDLGVYFCSQSTHVPWTFGGGTKLEIK | 76.95% | 94.50% | 47.06% | 13.85% | 82.64% |
| SM-05L: anti-γc antibody; CDR SEQ ID NO: 180, 182, 184, 188, 190, 192 (antibody, V domains shown, left off: another chain or arm of the molecule; small tags and cut ends) VH: EVQLQQSGPELVKPGASVKISCKTSGYTFTEYTMHWVKQSHGKSLEWIGGIDPNSGGATYNQKFKGKATLTVDKSSSTAYMEVRSLTSEDSAVYYCARRRLYYGYAMDYWGQGTSVTVSS VL: DVLMTQTPLSLPVSLGGQASISCRSSQNIVHSNGNTYLEWYLQKPGQSPKLLIYKVSNRFSGVPDRFSGSGSGTDFTLKISRVEAEDLGVYFCSQSTHVPFAFGSGTKLEIK | 73.54% | 100% | 49.10% | 26.03% | 92.36% |
| SM-05C: anti-γc antibody; CDR SEQ ID NO: 36, 38, 40, 44, 46, 48 (antibody, V domains shown, left off: another chain or arm of the molecule; small tags and cut ends) VH: QVQLQQSGPELVKPGASVKIFCKTSGYTFTEYTMHWVKQSHGESLEWIGGIDPNTGGATYNQKFKGKATLTADKSSSTAYMELRSLTSEDSAVYYCARRRRYYGYAMDYWGQGTSVTVSS VL: DVVMTQTPLSLPVSLGDQASISCRSSQSLVHSNGNTYLHWYLQKPGQSPKLLIYKVSNRFSGVPDRFSGSGSGTDFTLKISRVEAEDLGIYYCFQDSHVPFTFGSGTKLEIK | 45.99% | 100% | 46.04% | 29.10% | 97.92% |
| SM-05D: anti-γc antibody; CDR SEQ ID NO: 52, 54, 56, 60, 62, 64 (antibody, V domains shown, left off: another chain or arm of the molecule; small tags and cut ends) VH: QVQLQQSGPELVKPGASVKISCKTSGYTFTEYTMHWVKQSHGKSLEWIGGIDPYNGGVTYNQRFKGKATLTVDKSSSTAYMEFRSLTSEDSAVYYCARRRLYYGNALDYWGQGTSVTVSS VL: DIVMTQTPLSLPVSLGDQASISCRSSQSIVHRNGNTYLEWYLQKPGQSPKLLIYKVSNRFSGVPDRFSGSGSGTDFTLKISRVEAEDLGVYYCFQGSHVPFTFGSGTKLEIK | 63.77% | 99.80% | 48.59% | 30.00% | 100% |
